This is an account of results in the supplement of paper PMC10567573.

The data set can be described thus: protein stability index of a GFP-peptide fusion (GPS, HEK-293T) (PSI 1-6); higher = more stable.
Where [1] appears, read: treatment: DMSO, c terminus: a fixed tail appended.
Where [2] appears, read: treatment: MLN4924 1 uM, 8 h, c terminus: a fixed tail appended.

± gives the standard deviation.
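Also: 24-mer peptide tiles fused after GFP, lentivirally expressed, FACS-sorted into six equal bins by GFP/DsRed ratio, decoded by Illumina sequencing, PSI is the read-weighted mean bin number.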

For the sequence MPVQLTSRREIRKIMGVEEEDDDD [ANKRD40], the protein stability index under setting [1] amounted to 5.62 ± 0.19 and the protein stability index under setting [2] was 5.57 ± 0.13.
In the same order, the values of MPYISDKHPRQTLEVINLLRKHRE [KLHL20] are 2.86 ± 0.51 and 2.98 ± 0.26.
With MSEIRFTNLTWDQVITLDQVLDEV [TENT5D], the protein stability index by setting is: under setting [1], 2.33 ± 0.33; under setting [2], 2.31 ± 0.27.
As for MSEPAGDVRQNPCGSKACRRLFGP [CDKN1A], the protein stability index under setting [1] was 3.58 ± 0.39 and the protein stability index under setting [2] was 3.61 ± 0.14.
In turn, MSSASGLRRGHPAGGEENMTETDA [CASP6] came in with a protein stability index under setting [1] of 5.3 ± 0.33 and a protein stability index under setting [2] of 5.39 ± 0.16.
Turning to MSSYTVAGRNVLRWDLSPEQIKTR [NLN], the protein stability index was found to be 2.99 ± 0.33 under setting [1] and 3.04 ± 0.18 under setting [2].
In the same order, the values of MWYPEIKHFCPRTPVILVGCQLDL [RHOBTB1] are 2.91 ± 0.57 and 2.6 ± 0.65.
On to MYDEKAHEWKSLAPMDAPRYQHGI [KLHL13], for which the protein stability index stood at 3.15 ± 0.21 under setting [1] and 3.4 ± 0.17 under setting [2].
NCGKSFSRLTALTLHQRTHTEERP [ZNF449]: the protein stability index runs as follows: under setting [1], 3.38 ± 0.27; under setting [2], 3.36 ± 0.26.
For the sequence NDFSYLHTNCFELSIYVGCDKYPH [CPXM2], the protein stability index reads like this: under setting [1], 2.5 ± 0.18; under setting [2], 2.25 ± 0.37.
Take NENDFYDGAWCAGRNDLQQWIEVD [CPXM2]: the protein stability index stood at 4.22 ± 0.46 under setting [1] and 4.05 ± 0.3 under setting [2].
Consider NENMAAKKKSVAMHTNYLSACSFT [GNB5], for which the protein stability index by setting is: under setting [1], 3.09 ± 0.21; under setting [2], 3.25 ± 0.3.
For NGASWHTVAGSLNDFSYLHTNCFE [CPXM2], the protein stability index reads like this: under setting [1], 2.68 ± 0.47; under setting [2], 2.83 ± 0.23.
The matching figures for NGEYVPWLYCYDPVMDVWARKQDM [KLHL14]: 2.49 ± 0.09 and 2.57 ± 0.21.
Turning to NHFDMHRVGKWHQDFPVKKRKKLS [ZNF75A], the protein stability index is, setting by setting: under setting [1], 3.56 ± 0.24; under setting [2], 3.92 ± 0.076.
As to NHLPDPEIFRQRFRQFGYQDSPGP [ZNF24], the protein stability index is 3.54 ± 0.29 under setting [1] and 3.48 ± 0.3 under setting [2].
In the same order, the values of NISGHTNTNTLKVPECRLAEDLGN [SPOPL] are 3.53 ± 0.26 and 3.7 ± 0.19.
In the same order, the values of NIVNLLTTCSTPLLNSPPSFVCWS [AUP1] are 3.2 ± 0.56 and 2.78 ± 0.47.
Take NIWASQSVLSACDNLSDLVMVRWN [IQUB]: the protein stability index by setting is: under setting [1], 2.14 ± 0.11; under setting [2], 2.27 ± 0.46.
In the same order, the values of NKCSGMRFPLQEENSVTHHEVKCQ [KMT5A] are 4.79 ± 0.42 and 4.61 ± 0.37.
Consider NKGTRFSEAWEYFHLAPARAGHHP [ZBED2], for which the protein stability index under setting [1] came to 2.64 ± 0.16 and the protein stability index under setting [2] is 2.96 ± 0.22.
The sequence NKNEVFYQCPDQMARNPAAIDMFI [FBXO3] registered a protein stability index under setting [1] of 2.42 ± 0.17 and a protein stability index under setting [2] of 2.65 ± 0.48.
As for NLIYRSTRHLKRLALMIQSSGNTV [TMEM192], the protein stability index is, setting by setting: under setting [1], 2.93 ± 0.43; under setting [2], 2.67 ± 0.42.
With NLLFKPPVESHIQKNKKILKSAKD [KMT2E], the protein stability index is 3.61 ± 0.099 under setting [1] and 3.6 ± 0.38 under setting [2].
In the case of NPTRQDESIQRIAVHLCNALVCQV [ZER1], the protein stability index by setting is: under setting [1], 2.48 ± 0.74; under setting [2], 2.27 ± 0.16.
In the case of NQKCQLRLLKTLETSRSHDLEAVV [ATP23], the protein stability index runs as follows: under setting [1], 3.14 ± 0.12; under setting [2], 3.3 ± 0.2.
In the same order, the values of NQLTHTDLKPENILFVNSEFETLY [CLK3] are 3.29 ± 0.35 and 3.27 ± 0.18.
In the same order, the values of NRFVQLSGRPHLPGKKKIRWDPVR [KLHDC10] are 2.5 ± 0.6 and 2.49 ± 0.52.
For NRVSWWGSTLAMLQRLKEQQFVIA [ZBED1], the protein stability index was 2.41 ± 0.38 under setting [1] and 2.48 ± 1 under setting [2].
As for NSGLKPKDNEFTSKPWHWPINYQG [POMT2], the protein stability index under setting [1] came to 2.99 ± 0.18 and the protein stability index under setting [2] worked out at 3.24 ± 0.27.
As to NSHQDFWTVWSGNRASLYSFPEPE [PRAME], the protein stability index turned out to be 2.49 ± 0.19 under setting [1] and 2.67 ± 0.38 under setting [2].
For NSLITAPGEFSDASMSPDATKPSH [SMAD6], the protein stability index is, setting by setting: under setting [1], 5.07 ± 0.21; under setting [2], 5.23 ± 0.18.
In the same order, the values of NSTPLRAACFDGRLDIVKYLVENN [FEM1B] are 2.84 ± 0.19 and 3.01 ± 0.21.
In the same order, the values of NTEDWRPRPGTGQSRSFRILAHLT [PDLIM7] are 2.81 ± 0.33 and 2.9 ± 0.22.
Take NTKEKIAFFASHQCSNRIGSMKIK [FBXO34]: the protein stability index reads like this: under setting [1], 2.79 ± 0.19; under setting [2], 2.72 ± 0.46.
On to NVADTLVLADLHSAEQLKAQAIDF [SPOPL], for which the protein stability index is 3.46 ± 0.16 under setting [1] and 3.77 ± 0.57 under setting [2].
With NVKMIVLICVIVFIIILFIVLFAT [VAMP8], the protein stability index was 2.27 ± 0.3 under setting [1] and 2.37 ± 0.27 under setting [2].
In the same order, the values of NVSLGPGVVVEDGVCIRRCTVLRD [GMPPB] are 3.54 ± 0.27 and 3.44 ± 0.29.
For the sequence NVTRHQAECALNERGVEGDFLIRD [NCK2], the protein stability index was found to be 4.35 ± 0.27 under setting [1] and 4.5 ± 0.31 under setting [2].
In the case of NWRYATGGWETVFRPVSETCTDRS [FUT8], the protein stability index by setting is: under setting [1], 2.21 ± 0.42; under setting [2], 3 ± 0.67.
PAFPFIYTPTAEDSAQMQNGGPST [ANKRD40]: the protein stability index is 4.55 ± 0.12 under setting [1] and 4.5 ± 0.23 under setting [2].
As to PALLFPATRGVPAKRLLDADDAAA [TRIB1], the protein stability index reads like this: under setting [1], 4.74 ± 0.23; under setting [2], 4.67 ± 0.27.
For the sequence PAPTTTTATREEASTSLPTKPTQG [CLPTM1], the protein stability index runs as follows: under setting [1], 5.54 ± 0.19; under setting [2], 5.57 ± 0.14.
With PASGEVEASQLRRLNIKKDDEFFH [TMEM40], the protein stability index under setting [1] stood at 4.79 ± 0.1 and the protein stability index under setting [2] came out at 4.78 ± 0.25.
As to PEEPSAEDSINNSLVQLQASHQQQ [MYBL2], the protein stability index runs as follows: under setting [1], 5.62 ± 0.18; under setting [2], 5.55 ± 0.16.
As to PEVECLKANTNEVLWAVVAAFTK [GOLPH3], the protein stability index was determined as 2.17 ± 0.17 (treatment: DMSO, c terminus: native) and 2.25 ± 0.31 (treatment: MLN4924 1 uM, 8 h, c terminus: native).
Consider PFDGLLEERALLLGRMGKHEQALF [VPS39], for which the protein stability index was 2.59 ± 0.28 under setting [1] and 2.67 ± 0.37 under setting [2].
On to PGAGDPAPGIGPPEPWPGGCTGDE [MYCL], for which the protein stability index reads like this: under setting [1], 5.38 ± 0.057; under setting [2], 5.16 ± 0.43.
With PGVHRRYSALREESAKDWETSPLP [PPFIA4], the protein stability index by setting is: under setting [1], 4.04 ± 0.31; under setting [2], 4.43 ± 0.27.
Consider PIVNISEVLGPLCLMLLMGTVHCQ [PHTF1], for which the protein stability index is 3.34 ± 0.24 under setting [1] and 3.17 ± 0.22 under setting [2].
The matching figures for PKELSSFSFSMKGHEKTAKSKTRS [DLC1]: 4.73 ± 0.31 and 4.78 ± 0.21.
On to PLEAMYMQCPVIAVNSGGPLESID [ALG2], for which the protein stability index came out at 3.61 ± 0.33 under setting [1] and 3.86 ± 0.22 under setting [2].
The matching figures for PLGVLQAIAMYFLPPSPRFLVMKG [SLC2A12]: 2.64 ± 0.98 and 2.88 ± 1.3.
Regarding PLTSHILRAFVNSQIQGHKEMSKV [SNX8], the protein stability index reads like this: under setting [1], 2.3 ± 0.36; under setting [2], 2.21 ± 0.3.
On to PMPWLVLSEIFPGGIRGRAMALTS [SLC2A12], for which the protein stability index was 2.5 ± 0.16 under setting [1] and 2.33 ± 0.38 under setting [2].
As to PNGSAAEPPTEAASREENQAGPEA [PALM], the protein stability index by setting is: under setting [1], 5.56 ± 0.35; under setting [2], 5.4 ± 0.25.
Sequence PNIRNMAPNSLSAPTMLHNSSGDF [TRAF3IP2] returned a protein stability index under setting [1] of 4.16 ± 0.34 and a protein stability index under setting [2] of 4.43 ± 0.19.
Take PNNSCYSAGIAKLEEGDELQLAIP [TNFSF13B]: the protein stability index runs as follows: under setting [1], 4.55 ± 0.12; under setting [2], 4.59 ± 0.29.
In the same order, the values of PPLPTYHVLLEGEGLGQSLGNFKD [TRIM29] are 3.8 ± 0.085 and 3.7 ± 0.14.
With PPLTRQIAVKTLGIGKNVICDRTA [GFOD1], the protein stability index is 3.71 ± 0.22 under setting [1] and 3.92 ± 0.082 under setting [2].
Regarding PPNQQMSPSPMSHGHYSMHCLHSA [DLX1], the protein stability index amounted to 3.1 ± 0.31 under setting [1] and 3.13 ± 0.15 under setting [2].
For the sequence PPSMVAAGSVVAAVQGLNLRSPNN [CCND1], the protein stability index is, setting by setting: under setting [1], 4.31 ± 0.17; under setting [2], 4.3 ± 0.26.
As to PPSRAPTAAPPPPPPSRPSVAVPP [WASL], the protein stability index runs as follows: under setting [1], 4.77 ± 0.21; under setting [2], 4.86 ± 0.21.
Take PPTSPEPPRSSPRQTPAPGPAREK [CEBPD]: under setting [2], the protein stability index worked out at 5.62 ± 0.089.
Take PQIPVDRGSETTYESSADIAGDEG [TAF7L]: the protein stability index by setting is: under setting [1], 5.46 ± 0.22; under setting [2], 5.48 ± 0.32.
In the same order, the values of PQKSYFIRLYGLQAGRLLWEQELY [WAS] are 2.28 ± 0.32 and 2.15 ± 0.19.
Take PRLIAKVEGKGNGIKTVIVNMVDV [EIF5]: the protein stability index came out at 2.34 ± 0.41 under setting [1] and 2.37 ± 0.34 under setting [2].
In the same order, the values of PSHYDVQDRFRIELSEEGAEGRVV [MOSPD3] are 4.63 ± 0.11 and 4.79 ± 0.33.
In the same order, the values of PSSLGPLLPLQREPLYNWQATKAS [BTBD1] are 3.36 ± 0.21 and 3.5 ± 0.14.
For the sequence PSVMDPGAFETVLASAYTGRLSMA [ZBTB22], the protein stability index turned out to be 2.3 ± 0.38 under setting [1] and 2.3 ± 0.17 under setting [2].
In the case of PTPSTDAEYPANGSGADRIYDLNI [NCK2], the protein stability index under setting [1] worked out at 4.69 ± 0.21 and the protein stability index under setting [2] amounted to 4.71 ± 0.19.
For PTTEPETEPEDDRGPVVPKHSTFG [GNAS], the protein stability index came out at 5.4 ± 0.18 under setting [1] and 5.27 ± 0.42 under setting [2].
